{"source": "paper PMC5431922", "key": {"[1]": {"target": "20.8-kDa tegumental-allergen-like protein from Clonorchis sinensis (CsTAL3), full-length (aa 1-184) (Clonorchis sinensis)", "assay": "AUC; sedimentation velocity, 20 °C, 2.5 and 0.6 mg/mL, 50 x 10^3 rpm, interference optics, c(s) analysis; without CaCl2 and with 5 mM CaCl2"}, "[2]": {"target": "20.8-kDa tegumental-allergen-like protein from Clonorchis sinensis (CsTAL3), full-length (aa 1-184) (Clonorchis sinensis)", "assay": "SAXS; 20 °C, 20 mM Tris-HCl pH 7.5, 100 mM NaCl, without or with 5 mM CaCl2; 1.9 to 5.2 mg/mL; molecular mass estimated against standard proteins"}}}
{"substance": "20.8-kDa tegumental-allergen-like protein from Clonorchis sinensis (CsTAL3), full-length (aa 1-184) (natural protein)", "values": [{"measurement": "stoichiometry N", "setting": "[1]", "value": 2}, {"measurement": "stoichiometry N", "setting": "[2]", "value": 2}]}
